The numbers were not newly measured in article PMC13428679, which cites them from elsewhere.

Series [1] deals with Skp1 (Dictyostelium discoideum) (UniProt P52285).

Sequence of Fbs1 (Cavia porcellus) (Q80UW2 whole entry): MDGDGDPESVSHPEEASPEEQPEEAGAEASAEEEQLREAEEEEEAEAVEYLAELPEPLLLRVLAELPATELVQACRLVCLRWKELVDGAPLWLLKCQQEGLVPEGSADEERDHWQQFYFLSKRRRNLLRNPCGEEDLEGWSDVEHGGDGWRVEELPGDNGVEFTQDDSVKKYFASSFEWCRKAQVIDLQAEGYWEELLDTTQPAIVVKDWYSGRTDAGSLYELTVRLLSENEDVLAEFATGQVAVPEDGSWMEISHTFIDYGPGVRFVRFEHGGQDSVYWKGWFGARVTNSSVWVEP

Regarding Skp1 (from UniProt P52285), in series [1], the Kd was 2.5 µM.
On to Skp1 (from UniProt P63208), for which the Kd with Fbs1 (Cavia porcellus) is 25 µM.
